This series in a line: soluble on expression in E. coli; label from the status in PepcDB or PDB records.
In the case of “MARSLLLPLQILLLSLALETAGEEAQGDKIIDGAPCARGSHPWQVALLSGNQLHCGGVLVNERWVLTAAHCKMNEYTVHLGSDTLGDRRAQRIKASKSFRHPGYSTQTHVNDLMLVKLNSQARLSSMVKKVRLPSRCEPPGTTCTVSGWGTTTSPDVTFPSDLMCVDVKLISPQDCTKVYKDLLENSMLCAGIPDSKKNACNGDSGGPLVCRGTLQGLVSWGTFPCGQPNDPGVYTQVCKFTKWINDTMKKHR”, the “soluble on expression in E. coli” value is “soluble”.

“MARSRRDKNVSLTKVKKKTKDTKNNLVNEVRASVDQYKNLFIFTIANMRSTRFIAIRQKYKENSRFFFGKNNVISIALGKQKSDEYANQLHKASAILKGQCGLMFTNMSKKEVEAEFSEASEEDYARVGDVATETVVLPEGPISQFAFSMEPQLRKLGLPTKLDKGVITLYQQFEVCKEGEPLTVEQAKILKHFEVKMSQFRLIFKAHWNKKDGFKELDA”: the “soluble on expression in E. coli” value was “not soluble”. Then “MARTIPVLEIFGPTIQGEGMVIGQKTMFVRTAGCDYRCRWCDSAFTWDGSAKDEIEQLTADEIWRRLEAIGGRRFRHVTISGGNPLLIAALGELIALLHEKGMRVAVETQGSRWQDWLLDIDDVTLSPKPPSSGMDTDWSALDQIIERLQADQSRVRRISLKVVVFDDADLAYAKEVHCRYPGVPFYLQTGNADVADSDVDALRAKLLSRLEWLVEQAADSEELADVHILPQLHTLLWGNKRGV”, with “not soluble”; and “MASANNQNKFLDPRERGNILNYLKVCLLLARAVRRMHAAGLCHSDLSYKNVLIDPEQGHACIIDVDGLVVPGKFPPDVVGTPDFIAPEVVKTSHLLKEDPQRILPNITTDRHALSVLIYMYLFYRHPLRGGKIHDMDDEVRDESLAMGERALFIEHPTDRSNAVKLNQVKPSSLPWADPQKVPYTIMGPYLTQLFEKAFIDGLHDPSKRPTADEWETALVKTVDLIQPCQNTACEQKWYVFSGKTKPVCPYCLEHHHHHH”, with “soluble”.

For “MASANSVIEGDLFKQKGASTFFNEGDINSSEGTIKHIYGLIIGTSNVSSSGTFATVNLTAGNKTGMTEFSLSNVLISDINSKSVPYTVTNATVLIDTAPVIDPICCPKSVDEKSKLAFKISAKDADGDRLTLSASGLPEGASFNRTSGAFAWTPAVGQTGVYTIAFKVSDGYLTDSENVTVTVNKLNNPPVIDFFEPINGSSFSEGERIGISVNATDAEKQALNYSIKIDGVMYSSDPAYIWETDYSSSGNHTIEVSVSDGIDEAKMQHSIYISECHPRYDVNEDGVVNILDITNVSREYETTVSKPYPRYDTNQDGEINILDLTLVGHHFGEKVELEHHHHHH”, the “soluble on expression in E. coli” value was “not soluble”. Turning to “MASASRLPPLPALRDFIHMYRLRAKKILSQNYLMDMNITRKIAKHAKVIEKDWVIEIGPGPGGITRAILEAGASRLDVVEIDNRFIPPLQHLAEAADSRMFIHHQDALRTEIGDIWKNETARPESVDWHDSNLPAMHVIGNLPFNIASPLIIKYLRDMSYRRGVWQYGRVPLTLTFQLEVAKRLCSPIACDTRSRISIMSQYVAEPKMVFQISGSCFVPRPQVDVGVVRFVPRKTPLVNTSFEVLEKVCRQVFHYRQKYVTKGLKTLYPEELEDELSDDLLKKCRIDPTTTSIRLGIEQFADLAEGYNEQCIRYPGLFLYDYTNKLHNLEDLSKEPNALPPPVPIFAPAPTIDSADNTWSLKNFNCS”, the “soluble on expression in E. coli” value is reported as “not soluble”. Turning to “MASAVGEKMLDDFEGVLNWGSYSGEGAKVSTKIVSGKTGNGMEVSYTGTTDGYWGTVYSLPDGDWSKWLKISFDIKSVDGSANEIRFMIAEKSINGVGDGEHWVYSITPDSSWKTIEIPFSSFRRRLDYQPPGQDMSGTLDLDNIDSIHFMYANNKSGKFVVDNIKLIGALEHHHHHH”, the “soluble on expression in E. coli” value was “soluble”. With “MASGAGGVGGGGGGKIRTRRCHQGPIKPYQQGRQQHQGILSRVTESVKNIVPGWLQRYFNKNEDVCSCSTDTSEVPRWPENKEDHLVYADEESSNITDGRITPEPAVSNTEEPSTTSTASNYPDVLTRPSLHRSHLNFSMLESPALHCQPSTSSAFPIGSSGFSLVKEIKDSTSQHDDDNISTTSGFSSRASDKDITVSKNTSLPPLWSPEAERSHSLSQHTATSSKKPAFNLSAFGTLSPSLGNSSVLKTSQLGDSPFYPGKTTYGGAAAAVRQSKLRNTPYQAPVRRQMKAKQLSAQSYGVTSSTARRILQSLEKMSSPLADAKRIPSIVSSPLNSVDSQYPPVQRLMTPKPVSIATNRSVYFKPSLTPSGEFRKTNQRIDKKCSTGYEKNMTPGQNREQRESGFSYPNFSLPAANGLSSGVGGGGGKMRRERTRFVASKPLEEEEMEVPVLPKISLPITSSSLPTFNFSSPEITTSSPSPINSSQALTNKVQMTSPSSTGSPMFKFSSPIVKSTEANVLPPSSIGFTFSVPVAKTAELSGSSSTLEPIISSSAHHVTTVNSTNCKKTPPEDCEGPFRPAEILKEGSVLDILKSPGFASPKIDSVAAQPTATSPVVYTRPAISSFSSSGIGFGESLKAGSSWQCDTCLLQNKVTDNKCIACQAAKLSPRDTAKQTGIETPNKSGKTTLSASGTGFGDKFKPVIGTWDCDTCLVQNKPEAIKCVACETPKPGTCVKRALTLTVVSESAETMTASSSSCTVTTGTLGFGDKFKRPIGSWECSVCCVSNNAEDNKCVSCMSEKPGSSVPTSSSSTVPVSLPSGGSLGLEKFKKPEGSWDCELCLVQNKADSTKCLACESAKPGTKSGFKGFDTSSSSSNSAASSSFKFGVSSSSSGPSQTLTSTGNFKFGDQGGFKIGVSSDSGSINPMSEGFKFSKPIGDFKFGVSSESKPEEVKKDSKNDNFKFGLSSGLSNPVSLTPFQFGVSNLGQEEKKEELPKSSSAGFSFGTGVINSTPAPANTIVTSENKSSFNLGTIETKSASVAPFTCKTSEAKKEEMPATKGGFSFGNVEPASLPSASVFVLGRTEEKQQEPVTSTSLVFGKKADNEEPKCQPVFSFGNSEQTKDENSSKSTFSFSMTKPSEKESEQPAKATFAFGAQTSTTADQGAAKPVFSFLNNSSSSSSTPATSAGGGIFGSSTSSSNPPVATFVFGQSSNPVSSSAFGNTAESSTSQSLLFSQDSKLATTSSTGTAVTPFVFGPGASSNNTTTSGFGFGATTTSSSAGSSFVFGTGPSAPSASPAFGANQTPTFGQSQGASQPNPPGFGSISSSTALFPTGSQPAPPTFGTVSSSSQPPVFGQQPSQSAFGSGTTPNSSSAFQFGSSTTNFNFTNNSPSGVFTFGANSSTPAASAQPSGSGGFPFNQSPAAFTVGSNGKNVFSSSGTSFSGRKIKTAVRRRK”, the “soluble on expression in E. coli” value is listed as “soluble”. Then “MASGKRKGLSFDDKKTRLLELFNETCDFYTLKELEKIAPKLKGIITQSVKDVLQSLVDDDLVNSDKCGVQTIYWCLPSEAVAKRQRRLDALQQQLAEKRQKLTALQRQLVQVQAGREDSVERTAVLERLAACEAAWRERQRTLESYLECDPDVLAQRETETKTLIEQANRWTDNLYVIRSYVQRNLGVDLDLFDQQFELKPALQYLE”, with “not soluble”; and “MASKGAARVRKKEIVKVVHGALLRTNIKAQMASAAPPLGPQLGQRGLNVANFCKEFNKETGHFKQGVPLPTRITVKPDRTYDLEICTPTTTWLLKQAAGIGRGKASKDEIVGKLTVKHLYEIAKIKSRDKALQHVPLEQICRMLIKTCRTLGIDVQYHDLDPVELKEFLVARKEKVDAQLKDLADKKAAKMLRTT”, with “not soluble”. Turning to “MASKYAVKLQTDFDNPKWIKRHKFMFDYLDINGNGQITLDEIVSKASDDICKNLGATPAQTQRHQDCVEAFFRGCGLEYGKETKFPEFLEGWKNLANADLAKWARNEPTLIREWGDAVFDIFDKDGSGTITLDEWKAYGRISGISPSEEDCEKTFQHCDLDNSGELDVDEMTRQHLGFWYTLDPEADGLYGNGVP”, the “soluble on expression in E. coli” value is given as “soluble”. As for “MASLPILTVLEQSQVSPPPDTLGDKSLQLTFFDFFWLRSPPINNLFFYELPITRSQFTETVVPNIKHSLSITLKHFYPFVGKLVVYPAPTKKPEICYVEGDSVAVTFAECNLDLNELTGNHPRNCDKFYDLVPILGESTRLSDCIKIPLFSVQVTLFPNQGIAIGITNHHCLGDASTRFCFLKAWTSIARSGNNDESFLANGTRPLYDRIIKYPMLDEAYLKRAKVESFNEDYVTQSLAGPSDKLRATFILTRAVINQLKDRVLAQLPTLEYVSSFTVACAYIWSCIAKSRNDKLQLFGFPIDRRARMKPPIPTAYFGNCVGGCAAIAKTNLLIGKEGFITAAKLIGENLHKTLTDYKDGVLKDDMESFNDLVSEGMPTTMTWVSGTPKLRFYDMDFGWGKPKKLETVSIDHNGAISINSCKESNEDLEIGVCISATQMEDFVHIFDDGLKAYL”, the entry is “soluble”; as for “MASLSRALRVAAAHPRQSPTRGMGPCNLSSAAGPTAEKSVPYQRTLKEGQGTSVVAQGPSRPLPSTANVVVIGGGSLGCQTLYHLAKLGMSGAVLLERERLTSGTTWHTAGLLWQLRPSDVEVELLAHTRRVVSRELEEETGLHTGWIQNGGLFIASNRQRLDEYKRLMSLGKAYGVESHVLSPAETKTLYPLMNVDDLYGTLYVPHDGTMDPAGTCTTLARAASARGAQVIENCPVTGIRVWTDDFGVRRVAGVETQHGSIQTPCVVNCAGVWASAVGRMAGVKVPLVAMHHAYVVTERIEGIQNMPNVRDHDASVYLRLQGDALSVGGYEANPIFWEEVSDKFAFGLFDLDWEVFTQHIEGAINRVPVLEKTGIKSTVCGPESFTPDHKPLMGEAPELRGFFLGCGFNSAGMMLGGGCGQELAHWIIHGRPEKDMHGYDIRRFHHSLTDHPRWIRERSHESYAKNYSVVFPHDEPLAGRNMRRDPLHEELLGQGCVFQERHGWERPGWFHPRGPAPVLEYDYYGAYGSRAHEDYAYRRLLADEYTFAFPPHHDTIKKECLACRGAAAVFDMSYFGKFYLVGLDARKAADWLFSADVSRPPGSTVYTCMLNHRGGTESDLTVSRLAPSHQASPLAPAFEGDGYYLAMGGAVAQHNWSHITTVLQDQKSQCQLIDSSEDLGMISIQGPASRAILQEVLDADLSNEAFPFSTHKLLRAAGHLVRAMRLSFVGELGWELHIPKASCVPVYRAVMAAGAKHGLINAGYRAIDSLSIEKGYRHWHADLRPDDSPLEAGLAFTCKLKSPVPFLGREALEQQRAAGLRRRLVCFTMEDKVPMFGLEAIWRNGQVVGHVRRADFGFAIDKTIAYGYIHDPSGGPVSLDFVKSGDYALERMGVTYGAQAHLKSPFDPNNKRVKGIY”, “not soluble”; as for “MASNEARYVLAEEVDFSSPEEVKNWWNSGTWQAEFGSPDIEWNGEVGNGALQLNVKLPGKSDWEEVRVARKFERLSECEILEYDIYIPNVEGLKGRLRPYAVLNPGWVKIGLDMNNANVESAEIITFGGKEYRRFHVRIEFDRTAGVKELHIGVVGDHLRYDGPIFIDNVRLYKRTGGM”, “soluble”.

Regarding “MASNEKTRYKAIIADHTYTIIGQESKQHMDLVTKIVNEQLAEIKHLSPQTDTEQASVLLAINAISDQLKKQEYALKLEKQVADLKQKTIRLAELENRVRRMEIIEEEARDVLKKNGQEDVEIHNHVEAQQILNENRKQQIQNKGVSE”, the “soluble on expression in E. coli” value was “not soluble”. Then “MASNSRSSISPWTFSQNKMFERALAVYDKDTPDRWHNVAKAVGGKTVEEVKRHYDILVEDLINIETGRVPLPNYKTFESNSRSINDFDTRYITKYLYMMLSIYFDNHSSDFEKFSQKVLVSYISLV”, with “soluble”. Then “MASNYNSGLKIGAWVGTQPSESAIKSFQELQGRKLDIVHQFINWSTDFSWVRPYADAVYNNGSILMITWEPWEYNTVDIKNGKADAYITRMAQDMKAYGKEIWLRPLHEANGDWYPWAIGYSSRVNTNETYIAAFRHIVDIFRANGATNVKWVFNVNCDNVGNGTSYLGHYPGDNYVDYTSIDGYNWGTTQSWGSQWQSFDQVFSRAYQALASINKPIIIAEFASAEIGGNKARWITEAYNSIRTSYNKVIAAVWFHENKETDWRINSSPEALAAYREAIGALEHHHHHH”, with “soluble”.
